The test system of the series is Nc1ncnc2c1ncn2[C@@H]1O[C@H](COP(=O)(O)OP(=O)(O)OP(=O)(O)O)[C@@H](O)[C@H]1O. Kind of series: purified protein. The settings on record: 25 mM MES-Tris pH 6.5, 4 mM MgSO4, 10% glycerol, 25 C.

Regarding “E. hirae V1-ATPase (A3B3DF complex) (Enterococcus hirae ATCC 9790)”, the Km was 400 µM.

These data come from article PMC3879392, “Mutant LV^476-7AA of A-subunit of Enterococcus hirae V1-ATPase: High affinity of A3B3 complex to DF axis and low ATPase activity” (SpringerPlus, 2013).
